7 molecules from PMC5562876, “The integration of Gβ and MAPK signaling cascade in zygote development” (Scientific Reports, 2017) can be followed below.

Numbering of substitutions follows the chain as printed. Numbers in names are those of the source.

First the molecules themselves.
B1: AGG1 (purified, pull-down) (natural protein, Arabidopsis thaliana, UniProt Q9FDX9 1-98, looked up)
chain: MREETVVYEQEESVSHGGGKHRILAELARVEQEVAFLEKELKEVENTDIVSTVCEELLSVIEKGPDPLLPLTNGPLNLGWDRWFEGPNGGEGCRCLIL
notes: AGG1, G protein gamma subunit 1, Arabidopsis thaliana, At3G63420; fusion protein; source: E. coli, purified (glutathione agarose beads)
B2: MKK4 (purified, pull-down) (natural protein, Arabidopsis thaliana, UniProt O80397 1-366, looked up)
chain: MRPIQSPPGVSVPVKSRPRRRPDLTLPLPQRDVSLAVPLPLPPTSGGSGGSSGSAPSSGGSASSTNTNSSIEAKNYSDLVRGNRIGSGAGGTVYKVIHRPSSRLYALKVIYGNHEETVRRQICREIEILRDVNHPNVVKCHEMFDQNGEIQVLLEFMDKGSLEGAHVWKEQQLADLSRQILSGLAYLHSRHIVHRDIKPSNLLINSAKNVKIADFGVSRILAQTMDPCNSSVGTIAYMSPERINTDLNQGKYDGYAGDIWSLGVSILEFYLGRFPFPVSRQGDWASLMCAICMSQPPEAPATASPEFRHFISCCLQREPGKRRSAMQLLQHPFILRASPSQNRSPQNLHQLLPPPRPLSSSSSPTT
notes: MKK4, MAP kinase kinase 4, Arabidopsis thaliana, At1G51660; source: E. coli, purified (glutathione agarose beads)
B3: AGG2 (purified, pull-down) (natural protein, Arabidopsis thaliana, UniProt Q93V47 1-100, looked up)
chain: MEAGSSNSSGQLSGRVVDTRGKHRIQAELKRLEQEARFLEEELEQLEKMDNASASCKEFLDSVDSKPDPLLPETTGPVNATWDQWFEGPKEAKRCGCSIL
notes: AGG2, G protein gamma subunit 2, Arabidopsis thaliana, At3G22942; fusion protein; source: E. coli, purified (glutathione agarose beads)
B4: AGB1 (purified, pull-down) (natural protein, Arabidopsis thaliana, UniProt P49177 1-377, looked up)
chain: MSVSELKERHAVATETVNNLRDQLRQRRLQLLDTDVARYSAAQGRTRVSFGATDLVCCRTLQGHTGKVYSLDWTPERNRIVSASQDGRLIVWNALTSQKTHAIKLPCAWVMTCAFSPNGQSVACGGLDSVCSIFSLSSTADKDGTVPVSRMLTGHRGYVSCCQYVPNEDAHLITSSGDQTCILWDVTTGLKTSVFGGEFQSGHTADVLSVSISGSNPNWFISGSCDSTARLWDTRAASRAVRTFHGHEGDVNTVKFFPDGYRFGTGSDDGTCRLYDIRTGHQLQVYQPHGDGENGPVTSIAFSVSGRLLFAGYASNNTCYVWDTLLGEVVLDLGLQQDSHRNRISCLGLSADGSALCTGSWDSNLKIWAFGGHRRVI
notes: AGB1, G protein beta subunit, Arabidopsis thaliana, At4G34460; source: E. coli, purified (glutathione agarose beads)
B5: MKK5 (purified, pull-down) (natural protein, Arabidopsis thaliana, UniProt Q8RXG3 1-348, looked up)
chain: MKPIQSPSGVASPMKNRLRKRPDLSLPLPHRDVALAVPLPLPPPSSSSSAPASSSAISTNISAAKSLSELERVNRIGSGAGGTVYKVIHTPTSRPFALKVIYGNHEDTVRRQICREIEILRSVDHPNVVKCHDMFDHNGEIQVLLEFMDQGSLEGAHIWQEQELADLSRQILSGLAYLHRRHIVHRDIKPSNLLINSAKNVKIADFGVSRILAQTMDPCNSSVGTIAYMSPERINTDLNHGRYDGYAGDVWSLGVSILEFYLGRFPFAVSRQGDWASLMCAICMSQPPEAPATASQEFRHFVSCCLQSDPPKRWSAQQLLQHPFILKATGGPNLRQMLPPPRPLPSAS
notes: MKK5, MAP kinase kinase 5, Arabidopsis thaliana, At3G21220; source: E. coli, purified (glutathione agarose beads)
B6: GPA1 (purified, pull-down) (natural protein, Arabidopsis thaliana, UniProt P18064 1-383, looked up)
chain: MGLLCSRSRHHTEDTDENTQAAEIERRIEQEAKAEKHIRKLLLLGAGESGKSTIFKQIKLLFQTGFDEGELKSYVPVIHANVYQTIKLLHDGTKEFAQNETDSAKYMLSSESIAIGEKLSEIGGRLDYPRLTKDIAEGIETLWKDPAIQETCARGNELQVPDCTKYLMENLKRLSDINYIPTKEDVLYARVRTTGVVEIQFSPVGENKKSGEVYRLFDVGGQRNERRKWIHLFEGVTAVIFCAAISEYDQTLFEDEQKNRMMETKELFDWVLKQPCFEKTSFMLFLNKFDIFEKKVLDVPLNVCEWFRDYQPVSSGKQEIEHAYEFVKKKFEELYYQNTAPDRVDRVFKIYRTTALDQKLVKKTFKLVDETLRRRNLLEAGLL
notes: GPA1, G protein alpha subunit, Arabidopsis thaliana, At2G26300; fusion protein; also called WtGPA1; source: E. coli, purified (glutathione agarose beads)
B7: GPA1^Q222L (purified, pull-down) (natural protein, Arabidopsis thaliana, UniProt P18064 1-383, looked up)
chain: B6 chain with Q222L
notes: GPA1, G protein alpha subunit, Arabidopsis thaliana, At2G26300, with Q222L; fusion protein; source: E. coli, purified (glutathione agarose beads)

Assay in all cases: pull-down; purified fusion proteins from E. coli incubated with glutathione agarose beads, 25 mM Tris-HCl pH 7.5, 100 mM NaCl, 1 mM DTT, 1 hr; seven washes with 0.1% Triton X-100; eluted with 15 mM GSH; immunoblot
Holding throughout (settings): both partners purified

For assay [1], the target named is B5.
The target of assay [2] is T1, MPK6 (purified, pull-down) (Arabidopsis thaliana, UniProt Q39026 1-395).
T1 construct: MPK6, MAP kinase 6, Arabidopsis thaliana, At2G43790; fusion protein; source: E. coli, purified (glutathione agarose beads)
T1 sequence (Q39026 whole entry, the tested form may be a part): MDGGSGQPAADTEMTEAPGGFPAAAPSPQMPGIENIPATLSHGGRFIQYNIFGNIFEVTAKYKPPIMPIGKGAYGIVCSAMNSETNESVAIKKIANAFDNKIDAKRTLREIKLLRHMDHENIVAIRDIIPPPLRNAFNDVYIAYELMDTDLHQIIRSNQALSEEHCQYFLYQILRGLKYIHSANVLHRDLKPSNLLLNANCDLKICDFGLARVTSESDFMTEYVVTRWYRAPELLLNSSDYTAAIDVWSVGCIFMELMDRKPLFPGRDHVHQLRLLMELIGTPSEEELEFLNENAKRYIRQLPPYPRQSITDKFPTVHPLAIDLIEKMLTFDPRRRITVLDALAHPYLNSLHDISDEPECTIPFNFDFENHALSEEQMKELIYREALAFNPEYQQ

Assay [3] deals with B2.
For assay [4], the target named is B4.

In the case of B1, the binding result in assay [1], in assay [2] and in assay [3] was “binds” each time.

In the case of B2, the binding result in assay [4] was “binds”.

Consider B3, for which the binding result in assay [1], in assay [2] and in assay [3] was “binds” throughout.

With B4, the binding result in assay [2] is listed as “binds”.

B5: the binding result in assay [4] is “binds”.

Regarding B6, the binding result in assay [2] is “binds”.

Regarding B7, the binding result in assay [2] is reported as “binds”.
